Assay results from the supplement of paper PMC10567573.

B1: ZC3H15 (parent)
chain: ENLFTGEDLDELEEELNTLDLEE
B2: SNAP91 (parent)
chain: FAQPMMRPPFGAAAVPGTQLSPSP

Variants of: B1
Experiment: protein stability index of a GFP-peptide fusion (GPS, HEK-293T) (PSI 1-6); higher = more stable
Conditions: c terminus: native
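Further: lentivirally expressed fusions sorted by FACS into six bins by GFP to DsRed ratio, PSI derived from sequencing read proportions per bin multiplied by bin number.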

Protein stability index: each site, then its substitutions
T5: I 4.05; M 4.69; N 4.41; P 4.66; S 4.32; V 3.27; W 4.51; Y 4.25
G6: A 4.82; D 4.93; F 4.3; H 4.37; I 4.2; K 4.79; L 4.85; M 4.68; N 4.83; Q 4.41; R 4.51; S 4.88; T 4.81; V 4.28; Y 4.58
E7: A 4.55; C 4.38; D 4.93; F 4.42; H 4.66; I 4.49; K 4.01; L 3.98; M 4.69; N 4.68; P 4.16; Q 4.11; R 4.69; S 5; V 3.99; W 4.54; Y 4.23
D8: C 4.99; E 4.58; G 5.03; H 4.66; I 4.13; K 4.39; L 4.72; N 3.93; P 4.24; Q 4.58; R 5.05; S 5.14; T 4.25; V 4.83; W 4.09
L9: A 4.25; C 4.43; D 3.87; E 4.54; F 3.48; G 4.03; H 3.51; I 5; K 2.38; M 4.69; N 4.1; P 4.55; Q 3.82; R 3.18; S 4.49; T 4; V 4.68; W 3.09; Y 2.68
D10: A 5.27; E 5.05; F 4.12; G 4.73; H 4.89; I 4.73; K 4.35; L 4.28; M 3.89; N 5.33; P 5; Q 4.89; R 5.07; V 5.1; W 4.02; Y 3.33
E11: A 3.93; C 4.52; D 4.58; F 3.64; G 5.13; H 4.58; I 4.71; K 4.83; L 4.3; M 4.25; N 4.58; P 4.06; Q 4.89; R 4.98; S 4.93; T 4.9; V 4.1; W 4.67
L12: A 3.23; C 4.9; D 5.07; E 4.79; F 3.84; G 4.72; I 4.14; K 4.01; M 3.43; N 4.38; P 4.82; Q 3.69; R 3.52; S 4.59; Y 1.93
E13: A 5.59; C 5.19; D 4.46; F 3.81; G 3.77; H 3.82; I 4.51; K 4; L 4.44; N 5.1; P 3.56; Q 5.06; R 4.37; S 5.36; T 4.6; V 4.83; W 3.48; Y 4.11
E14: A 5.01; C 3.99; D 4.74; F 2.95; G 3.47; H 5.05; I 3.3; K 5.14; M 3.55; N 4.37; P 3.42; Q 4.56; S 4.85; T 4.12; V 3.65; W 3.7; Y 4.33
E15: A 4.94; D 3.74; F 3.37; G 5.2; H 4.29; I 4.04; K 5.54; L 3.29; M 3.88; N 4.61; P 3.14; Q 4.93; R 5.29; S 5.18; T 5.01; V 3.09; W 4.08; Y 3.4
L16: A 3.48; E 3.7; F 4.87; G 4.11; H 4.2; K 3.62; M 4.78; N 4.12; P 3.32; Q 2.69; R 3.77; S 3.82; T 4.77; V 4.22; W 2.9
N17: A 4.7; C 3.64; D 4.65; E 4.89; F 2.5; H 3.71; I 3.3; K 5.18; M 3.5; Q 4.06; R 5.04; S 4.45; T 3.66; V 3.5; W 2.69; Y 3.79
T18: A 4.22; C 4.8; D 4.24; H 4.81; K 5.53; L 4.96; N 5.31; P 2.54; Q 5.2; R 4.26; S 5.05; V 3.58; W 3.31
L19: A 4.58; D 5.17; E 5.17; F 2.97; G 4.69; H 3.85; I 3.98; K 4.95; N 4.52; P 4.67; Q 4.27; S 4.91; T 4.7; V 3.86; W 1.11; Y 1.99
D20: A 4.55; C 5.38; E 4.52; F 4.85; G 5.35; H 4.87; K 5.11; M 3.71; N 4.67; P 3.12; R 5.48; S 5.25; T 5.39; V 4.99; W 4.2; Y 5.22
L21: A 2.44; C 2.13; D 4.99; E 4.73; F 3.33; G 4.82; H 3.31; I 2.25; K 2.71; N 1.1; Q 4.88; R 3.48; S 2.58; T 2.68; V 2.59; Y 3.62
E22: A 5.34; C 5.58; D 5.75; F 5.82; G 5.33; H 5.94; I 5.44; K 5.67; L 5.79; M 5.37; N 5.37; P 5.17; Q 5.67; R 5.7; S 5.84; T 5.41; V 5.55; W 5.39; Y 5.5
E23: A 5.96; D 5.47; F 5.07; G 5.05; H 5.42; I 5.81; K 5.61; L 5.73; M 4.61; N 5.51; P 5.67; Q 4.97; R 3.26; S 5.89; V 5.29; W 5.54; Y 5.58

Variants of: B2
Experiment: as above
Conditions: c terminus: a fixed tail appended

Protein stability index, by site and new letter:
F1: A 4.67; C 3.3; D 4.55; E 4.68; G 4.5; H 4.02; I 4.02; K 4.28; L 3.59; M 4.26; N 4.53; P 4.75; Q 4.66; R 4.19; S 4.11; T 4.53; V 4.42; W 3.41; Y 2.24
A2: C 2.73; D 4.69; E 4.45; F 2.96; G 3.52; H 2.27; I 1.94; K 3.84; L 2.62; M 3.62; N 4.59
